These results are taken from the supplement of paper PMC5998384.

Data set [1] relates to HeLa Kyoto. Kind of data set: thermal stability score vs G1/S (z-score of summed log2 fold changes over temperatures); higher = more thermally stable than in G1/S.
Data set [2] deals with HeLa Kyoto. Put plainly: solubility change mitosis vs G1/S (difference of NP-40 vs SDS log2 ratios) (log2 ratio difference); higher = more soluble in mitosis.
Data set [3] has as its system HeLa Kyoto. Put plainly: solubility in G1/S (NP-40 vs SDS abundance) (log2 ratio); higher = more soluble. To be noted: cell cycle stage: G1/S.
For data set [4], the system named is HeLa Kyoto. Put plainly: melting temperature (median over replicates), in situ; higher = more thermally stable.
The mark [5] stands for this setting: cell cycle stage: early G1 (4.5 h after nocodazole release).
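Wherever melting temperature (median over replicates), in situ is given: HeLa Kyoto cells synchronized by double thymidine or nocodazole block, proteins quantified by TMT10plex mass spectrometry, three independent biological replicates.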
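Wherever solubility change mitosis vs G1/S (difference of NP-40 vs SDS log2 ratios) is given: synchronized HeLa Kyoto cells (double thymidine block for G1/S, nocodazole release for mitosis), protein amounts in NP-40 versus SDS lysates quantified by mass spectrometry, three biological replicates.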
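Wherever solubility in G1/S (NP-40 vs SDS abundance) is given: HeLa Kyoto cells arrested at G1/S by double thymidine block, proteins quantified by TMT10plex mass spectrometry in mild NP-40 versus SDS extracts, three biological replicates.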
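Wherever thermal stability score vs G1/S (z-score of summed log2 fold changes over temperatures) is given: synchronized HeLa Kyoto cells, proteins quantified by TMT10plex mass spectrometry, three biological replicates, mitosis taken 0.5 h after nocodazole release, G1/S directly after double thymidine block.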

On to “MAAVSGLVRRPLREVSGLLKRRFHWTAPAALQVTVRDAINQGMDEELERDEKVFLLGEEVAQYDGAYKVSRGLWKKYGDKRIIDTPISEMGFAGIAVGAAMAGLRPICEFMTFNFSMQAIDQVINSAAKTYYMSGGLQPVPIVFRGPNGASAGVAAQHSQCFAAWYGHCPGLKVVSPWNSEDAKGLIKSAIRDNNPVVVLENELMYGVPFEFPPEAQSKDFLIPIGKAKIERQGTHITVVSHSRPVGHCLEAAAVLSKEGVECEVINMRTIRPMDMETIEASVMKTNHLVTVEGGWPQFGVGAEICARIMEGPAFNFLDAPAVRVTGADVPMPYAKILEDNSIPQVKDIIFAIKKTLNI [PDHB]”, for which the thermal stability score in the data set on HeLa Kyoto [1] (setting [5]) is -1.24; in the data set on HeLa Kyoto [1] (cell cycle stage: mitosis), -2.38. Besides, in the data set on HeLa Kyoto [2], the “solubility change mitosis (log2)” value is -0.117. For the same substance, the “solubility in G1/S (log2)” value in the data set on HeLa Kyoto [3] amounted to 0.196. The melting temperature in the data set on HeLa Kyoto [4] (cell cycle stage: G1/S) came out at 51.7 °C; with HeLa Kyoto [4] (cell cycle stage: mitosis), 51.4 °C.

With “MGWVGGRRRDSASPPGRSRSAADDINPAPANMEGGGGSVAVAGLGARGSGAAAATVRELLQDGCYSDFLNEDFDVKTYTSQSIHQAVIAEQLAKLAQGISQLDRELHLQVVARHEDLLAQATGIESLEGVLQMMQTRIGALQGAVDRIKAKIVEPYNKIVARTAQLARLQVACDLLRRIIRILNLSKRLQGQLQGGSREITKAAQSLNELDYLSQGIDLSGIEVIENDLLFIARARLEVENQAKRLLEQGLETQNPTQVGTALQVFYNLGTLKDTITSVVDGYCATLEENINSALDIKVLTQPSQSAVRGGPGRSTMPTPGNTAALRASFWTNMEKLMDHIYAVCGQVQHLQKVLAKKRDPVSHICFIEEIVKDGQPEIFYTFWNSVTQALSSQFHMATNSSMFLKQAFEGEYPKLLRLYNDLWKRLQQYSQHIQGNFNASGTTDLYVDLQHMEDDAQDIFIPKKPDYDPEKALKDSLQPYEAAYLSKSLSRLFDPINLVFPPGGRNPPSSDELDGIIKTIASELNVAAVDTNLTLAVSKNVAKTIQLYSVKSEQLLSTQGDASQVIGPLTEGQRRNVAVVNSLYKLHQSVTKVVSSQSSFPLAAEQTIISALKAIHALMENAVQPLLTSVGDAIEAIIITMHQEDFSGSLSSSGKPDVPCSLYMKELQGFIARVMSDYFKHFECLDFVFDNTEAIAQRAVELFIRHASLIRPLGEGGKMRLAADFAQMELAVGPFCRRVSDLGKSYRMLRSFRPLLFQASEHVASSPALGDVIPFSIIIQFLFTRAPAELKSPFQRAEWSHTRFSQWLDDHPSEKDRLLLIRGALEAYVQSVRSREGKEFAPVYPIMVQLLQKAMSALQ [COG5]”, the thermal stability score with HeLa Kyoto [1] (setting [5]) stood at 0.309; in the data set with HeLa Kyoto [1] (cell cycle stage: mitosis), 0.873. In addition, in the data set on HeLa Kyoto [2], the “solubility change mitosis (log2)” value is -0.0443. In addition, the “solubility in G1/S (log2)” value in the data set on HeLa Kyoto [3] stood at 0.00411. Further, the melting temperature in the data set with HeLa Kyoto [4] (cell cycle stage: G1/S) turned out to be 48.3 °C; with HeLa Kyoto [4] (cell cycle stage: mitosis) it was 48 °C.

For “MAVTALAARTWLGVWGVRTMQARGFGSDQSENVDRGAGSIREAGGAFGKREQAEEERYFRAQSREQLAALKKHHEEEIVHHKKEIERLQKEIERHKQKIKMLKHDD [ATPIF1]”, the thermal stability score in the data set on HeLa Kyoto [1] (setting [5]) was 3.16; with HeLa Kyoto [1] (cell cycle stage: mitosis), -2.08. Moreover, the “solubility change mitosis (log2)” value with HeLa Kyoto [2] stood at 0.408. The “solubility in G1/S (log2)” value with HeLa Kyoto [3] was 0.903. Further, the melting temperature with HeLa Kyoto [4] (cell cycle stage: G1/S) was determined as 56.8 °C; in the data set with HeLa Kyoto [4] (cell cycle stage: mitosis) it was 56.9 °C.

In the case of “MAAAAPDSRVSEEENLKKTPKKKMKMVTGAVASVLEDEATDTSDSEGSCGSEKDHFYSDDDAIEADSEGDAEPCDKENENDGESSVGTNMGWADAMAKVLNKKTPESKPTILVKNKKLEKEKEKLKQERLEKIKQRDKRLEWEMMCRVKPDVVQDKETERNLQRIATRGVVQLFNAVQKHQKNVDEKVKEAGSSMRKRAKLISTVSKKDFISVLRGMDGSTNETASSRKKPKAKQTEVKSEEGPGWTILRDDFMMGASMKDWDKESDGPDDSRPESASDSDT [RRP15]”, the thermal stability score is -5.18 with HeLa Kyoto [1] (setting [5]) and -11.7 with HeLa Kyoto [1] (cell cycle stage: mitosis). Moreover, the “solubility change mitosis (log2)” value in the data set with HeLa Kyoto [2] amounted to 0.962. In addition, in the data set with HeLa Kyoto [3], the “solubility in G1/S (log2)” value was -1.21. The substance further displayed a melting temperature with HeLa Kyoto [4] (cell cycle stage: mitosis) of 54.2 °C.

Consider “MSSASVTAFEKEHLWMYLQALGFEPGPATIACGKIVSHTHLGVNMFDKLNRDAFHIISYFLFQVLDQSLTKEVFKFCWPPFDQKSDTEFRKHCCEWIKRISGECGSSFPQVVGSLFLSPGGPKFIHLMYHFARFVAMKYIKSNSKNSSHHFVETFNIKPQDLHKCIARCHFARSRFLQILQRQDCVTQKYQENAQLSVKQVRNLRSECIGLENQIKKMEPYDDHSNMEEKIQKVRSLWASVNETLMFLEKEREVVSSVLSLVNQYALDGTNVAINIPRLLLDKIEKQMFQLHIGNVYEAGKLNLLTVIQLLNEVLKVMKYERCQADQARLTVDLHYLEKETKFQKERLSDLKHMRYRIKDDLTTIRHSVVEKQGEWHKKWKEFLGLSPFSLIKGWTPSVDLLPPMSPLSFDPASEEVYAKSILCQYPASLPDAHKQHNQENGCRGDSDTLGALHDLANSPASFLSQSVSSSDRNSVTVLEKDTKMGTPKEKNEAISKKIPEFEVENSPLSDVAKNTESSAFGGSLPAKKSDPFQKEQDHLVEEVARAVLSDSPQLSEGKEIKLEELIDSLGSNPFLTRNQIPRTPENLITEIRSSWRKAIEMEENRTKEPIQMDAEHREVLPESLPVLHNQREFSMADFLLETTVSDFGQSHLTEEKVISDCECVPQKHVLTSHIDEPPTQNQSDLLNKKVICKQDLECLAFTKLSETSRMETFSPAVGNRIDVMGGSEEEFMKILDHLEVSCNKPSTNKTMLWNSFQISSGISSKSFKDNDFGILHETLPEEVGHLSFNSSSSSEANFKLEPNSPMHGGTLLEDVVGGRQTTPESDFNLQALRSRYEALKKSLSKKREESYLSNSQTPERHKPELSPTPQNVQTDDTLNFLDTCDLHTEHIKPSLRTSIGERKRSLSPLIKFSPVEQRLRTTIACSLGELPNLKEEDILNKSLDAKEPPSDLTR [HAUS6]”, for which the thermal stability score in the data set with HeLa Kyoto [1] (setting [5]) came to 0.745; with HeLa Kyoto [1] (cell cycle stage: mitosis) it was 1.14. In addition, the “solubility change mitosis (log2)” value in the data set with HeLa Kyoto [2] is -0.0199. Further, the “solubility in G1/S (log2)” value in the data set with HeLa Kyoto [3] was -0.0247. Also, the melting temperature in the data set on HeLa Kyoto [4] (cell cycle stage: G1/S) was 48.3 °C; in the data set on HeLa Kyoto [4] (cell cycle stage: mitosis) it was 49.1 °C.

WIZ: the thermal stability score is 0.511 in the data set on HeLa Kyoto [1] (setting [5]) and -0.305 with HeLa Kyoto [1] (cell cycle stage: mitosis). Further, the “solubility change mitosis (log2)” value in the data set with HeLa Kyoto [2] was determined as 0.321. In addition, in the data set with HeLa Kyoto [3], the “solubility in G1/S (log2)” value is -0.0213. The results for the melting temperature in the data set with HeLa Kyoto [4] (cell cycle stage: G1/S) and with HeLa Kyoto [4] (cell cycle stage: mitosis) were 50.4 °C and 50.8 °C, respectively.
